Data on one substance can be found in patent US20250076264A1.

This assay deals with Human α-thrombin (Haematologic Technologies, Inc.) (human). Kind of assay: cell-based or functional assay.

On to “Antithrombin (Grifols Therapeutics Inc.) (from UniProt P01008 33-464)”, for which the time to completion of the fluorescence increase (dissociation of the TBA15-F9+TBA29-D9+thrombin complex) after adding 1940 nM ATIII to 200 nM complex worked out at 600 s.
